This is an account of results in the supplement of paper PMC12042874.

± gives the uncertainty stated by the source.

The series can be described thus: amyloid nucleation score (Sup35N fusion, yeast selection) (log enrichment); library NNK2; higher = more nucleation; inactive = no reads after selection. In short, it runs like this: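 Plasmid inserts were Illumina-sequenced at input and output from psi-negative yeast expressing Sup35N fused to peptides of 20 random codons. The yeast were induced with 100 μM copper sulfate for 24 hours and grown 7 days at 30°C on medium lacking adenine and uracil, and sequences with under 100 input reads were excluded. Nucleation score is the DiMSum log enrichment of output over input reads, centred on the mode score of non-aggregating sequences.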
GKGWKSVVYSNMGRVSGCCK gave an amyloid nucleation score of 2.81 ± 0.12. On to GKINITAFAWLKAFADRHWI, for which the amyloid nucleation score is 0.705 ± 0.8. The substance GKMGYFEWGVLDYIVRLSGT showed an amyloid nucleation score of 0.851 ± 0.27.

Turning to GKRFNFVTCPPVLRR, the amyloid nucleation score is -0.088 ± 0.34. For GKSYVYIRLGIFSMWASHRR the value was 2.72 ± 0.08; for GKYMEDYNAENQNPSTMMES, -0.01 ± 0.47; for GLCKFKQVCTNSVGNYVGYF, -2.18 ± 0.62. GLCMYGVTAKRMLVVWRERG registered an amyloid nucleation score of 8.804 ± 0.046. In turn, GLDPRCNNTPVTLYVLSPWV registered an amyloid nucleation score of -0.588 ± 1.1. GLGAWFEI registered an amyloid nucleation score of 0.485 ± 0.29. In the case of GLLVELWSLLIIRYNLSAYL, the amyloid nucleation score was -0.841 ± 0.48. As to GLMRVRYESHRMKAGSLVSR, the amyloid nucleation score worked out at 1.89 ± 0.36. Next, GLNCTIV: 1.67 ± 0.32. GLQSVDGLQNTYLGSNAVVD showed an amyloid nucleation score of 0.87 ± 0.26.

Substance GLSGFSPQFASATIAQSIP came in with an amyloid nucleation score of 1.36 ± 0.23. Next, GLSRFA: -0.582 ± 1.1; GLTLMWALFGSVYGLRSGMG: 0.89 ± 0.28.

Regarding GLWLRFVCSIYFLMYIVHIN, the amyloid nucleation score result is “inactive”. Regarding GLYIEKARQRYPRSQHLIAM, the amyloid nucleation score was -0.419 ± 0.49. GLYTKT returned an amyloid nucleation score of 0.028 ± 0.14. The substance GMGSVCGIIEYAWTA had an amyloid nucleation score of 0.627 ± 0.3. Substance GMNQCCPD displayed an amyloid nucleation score of -0.455 ± 0.61. For GMPQESHSYPLYEMLLGRVG the value was -0.064 ± 0.3; for GMRWSFGVLASRSFCVKWCP, 5.57 ± 0.09. For the substance GMVDLGVGSWCMEP, the amyloid nucleation score worked out at 0.893 ± 0.15. In turn, GMVRRQVTLMSSSDRAI returned an amyloid nucleation score of -1.07 ± 1.1.

The substance GMYYPREIEFLAFWSTTRGR returned an amyloid nucleation score of -0.956 ± 1.

Substance GNFMTECLQARICGPDGEKK came in with an amyloid nucleation score of 5.12 ± 0.095. As for GNKLYFCSFAWLEVFKFKDL, the amyloid nucleation score was 1.86 ± 0.082.

With GNLDRYRYLETDKSGAMLGV, the amyloid nucleation score worked out at 4.3 ± 0.064. GNNNMRPIALCTLSMGGRTF returned an amyloid nucleation score of -0.575 ± 0.49. GNRDF: the amyloid nucleation score entry was “inactive”.

Regarding GNTGSGSDSKLYLAMP, the amyloid nucleation score was -0.076 ± 0.79. In the case of GNVFEHIQSMIRDSFEEHSG, the amyloid nucleation score was 0.889 ± 0.2. For GNVRVECANLYRAVLPDMGH the value was -0.167 ± 0.63; for GNYNLALDLPLTFERFRQSH, -0.736 ± 0.44.

As for GPWGGWSVT, the amyloid nucleation score entry was “inactive”. Next, GQAHRFGTHLRISAGVVPPV: 0.01 ± 0.32; GQLSFCGVVYDISRQEPTIF: “inactive”. As for GQWGETY, the amyloid nucleation score was 0.476 ± 0.25. In the case of GQYVQCNMSCVYVFLQWQRR, the amyloid nucleation score worked out at 6.262 ± 0.033. Next, GRCPVSRVHGIQRSGDGSVI: -0.383 ± 1.1; GRCYDFCHFYKQGRYSLGWV: -1.06 ± 0.63; GRGADKLTIG: 0.288 ± 0.36. GRMLKFLCWRWVVLMSGAPG: the amyloid nucleation score result was “inactive”. As for GRTYNVTEFLKSRTRWGSPL, the amyloid nucleation score worked out at 1.19 ± 0.59. Regarding GRVCSRSFL, the amyloid nucleation score was determined as 2.1 ± 0.085. For GRVFEK, the amyloid nucleation score is 4.93 ± 0.077.

GRVMMEC had an amyloid nucleation score of 0.465 ± 0.33.

The substance GRWVST returned an amyloid nucleation score of 1.29 ± 0.43.

Regarding GRYILFFSRSEFDFKIVQSV, the amyloid nucleation score was determined as 2.23 ± 0.21. GSCRHHRWGLVRGMFCVSAL: the amyloid nucleation score was 1.17 ± 0.42. For GSDFQFRSSATVLSAVEFLL, the amyloid nucleation score is -0.227 ± 0.35. In the case of GSGIIHTVGLGV, the amyloid nucleation score is -0.153 ± 0.65.

Substance GSLHVNGVVHVSDCHVTY displayed an amyloid nucleation score of 1.34 ± 0.53. GSLMRTFHILSIAHSTSWCM came in with an amyloid nucleation score of 0.381 ± 0.19. In turn, GSLYVLAMLSGYVAKPYKIY displayed an amyloid nucleation score of -0.072 ± 0.79. With GSPAVGEGG, the amyloid nucleation score is 0.697 ± 0.81. On to GSQYRVWISS, for which the amyloid nucleation score is -0.214 ± 0.55.

For the substance GSRVWFEIINL, the amyloid nucleation score turned out to be 6.013 ± 0.026. In the case of GSSRLKGDGIVLVKCSWRYM, the amyloid nucleation score turned out to be 1.13 ± 0.38.

GSWHDWHRCRSLRYDQTNTS showed an amyloid nucleation score of -0.185 ± 0.39. As to GTCCARAIGRYGYFNCRHRM, the amyloid nucleation score was -0.017 ± 0.34. In turn, GTCFQTINMGGCLIGGPG showed an amyloid nucleation score of 2.69 ± 0.14.

The substance GTFQSYHDTPEECSFRGKSV yielded an amyloid nucleation score of -0.114 ± 1.1. Substance GTGLNKHNNSC yielded an amyloid nucleation score of 0.36 ± 0.19. For GTILPCNWNNLLYWVVGENA the value was 0.438 ± 0.25; for GTLPA, -0.747 ± 0.48; for GTMPNGCKS, 0.541 ± 0.74. For GTPDYGCSSNVYCD the value was “inactive”; for GTRYSLCTRCG, 0.766 ± 0.5; for GVASNGKGFNTFMCAHCY, -0.225 ± 0.41. In the case of GVDFTWDRGCIGGRGCSSRY, the amyloid nucleation score is 5.956 ± 0.054. Next, GVFYDKYRGSVWSEDCKLWT: “inactive”; GVGVGLYKFLTPCFYGEDDE: 0.594 ± 0.57; GVKWSVSFKNWHYWKSMSVV: 1.26 ± 0.66. For GVMRSCCEIWTFSIVFRMYT, the amyloid nucleation score came to 0.604 ± 0.31. Next, GVPCRWTVPNANGSSVWSLR: 0.776 ± 0.3; GVSASQSTMLNCDNVTEDVS: 0.753 ± 0.22. Turning to GVSGIEVVFYMLSKWGKHER, the amyloid nucleation score is 4.13 ± 0.054. In turn, GVSIS showed an amyloid nucleation score of -0.116 ± 0.76.

GVSLLVSTSHGFVREPQVTS had an amyloid nucleation score of 0.526 ± 0.66.

The substance GVVGSFPRPTSSRGRLDYCN gave an amyloid nucleation score of -0.169 ± 0.55. For GVVHKDELRGLKVRESSEMG the value was 0.271 ± 0.48; for GVWICFRSAMNSIKACFNNR, 5.395 ± 0.04; for GWEYYSCGENWSLSPLSGYN, -0.969 ± 0.34. For GWFKESVFLGFWVRISNSQV, the amyloid nucleation score is -1.75 ± 1.1.

In turn, GWQWRWLHYRSVRINEEMVS registered an amyloid nucleation score of 0.342 ± 0.34. For GWWVCWVL, the amyloid nucleation score is -1.07 ± 1.1. For the substance GYCPLGAPCAGM, the amyloid nucleation score came to 1.23 ± 0.2. Next, GYCSDGWFAECTEWEAPVSR: 0.343 ± 0.64; GYHDRLSPSQTLPPTRNVLC: 0.312 ± 0.8; GYLVRM: -0.186 ± 0.3. For GYLVTLWD, the amyloid nucleation score was determined as 1.03 ± 0.49.

In turn, GYLYN showed an amyloid nucleation score of -1.32 ± 1.1. Take GYQRNYSFAVSMEARSVVPG: the amyloid nucleation score is 4.12 ± 0.058. For GYSDYVSYVKGC the value was 0.182 ± 0.8; for GYTIPLYQYKNWGLE, -0.515 ± 1. With GYTVCRLGCRFVMSLWNILV, the amyloid nucleation score is -0.221 ± 1.1. The substance GYWEAFFQLGASPYAGRSRG returned an amyloid nucleation score of -0.13 ± 0.76. Next, HAAGSLHMDYLV: 0.122 ± 1.1; HAILPRCTFHSPMVYALYFT: 0.58 ± 0.65; HATSMCNWAVFIECFFFGKL: 5.39 ± 0.065. As for HCLVIFNEIYRL, the amyloid nucleation score came out at 7.137 ± 0.071. Substance HCMLEYRMIVCVLVYAGYNM gave an amyloid nucleation score of 0.448 ± 0.47. Turning to HCRKQIMMGDFKIQGNRGVG, the amyloid nucleation score came to 0.448 ± 0.66.

HDDRFSCECYSSDSPESQGL had an amyloid nucleation score of -0.105 ± 1.1.

Take HDVSVLYEPTAAGWNRLLQT: the amyloid nucleation score was found to be 0.262 ± 0.54. In turn, HDYRVTYDVF returned an amyloid nucleation score of -1.24 ± 1.1.

HEEVLLHGLVCKLHRMKR: the amyloid nucleation score stood at 0.474 ± 0.26.

With HEYVAALGWMAEGLSKFLKR, the amyloid nucleation score stood at 0.579 ± 0.8. Next, HFIFVAYRWVSNNAELDLNF: -0.724 ± 0.63; HFSVMCTTRSKRLSIKPEWR: 4.41 ± 0.097; HFVNMHH: -0.213 ± 0.76. Next, HGCLYFRFLNALSSFGGYRA: -1.7 ± 1.

Consider HGETTTGILIELFVIWYVNS, for which the amyloid nucleation score result is “inactive”. For HGGPS the value was -0.571 ± 0.38; for HGLYCYPGYSDQCVTFVHGY, “inactive”; for HIGCYAPASISPLLNGEH, 0.458 ± 0.8. HIICSRHSNEAKLRMKSKAI had an amyloid nucleation score of -1.03 ± 0.61. Consider HIVVTKTWAGQRHVQFIM, for which the amyloid nucleation score amounted to 1.07 ± 0.26. Turning to HKGCIIVWKTKRGLCRSARC, the amyloid nucleation score was -0.384 ± 0.79.

On to HKGYCVRIIT, for which the amyloid nucleation score is -0.335 ± 0.26. Substance HKKCSRKKFPAPRPSRTNTS returned an amyloid nucleation score of -0.605 ± 0.48. Next, HKRCVITLLWADL: 0.344 ± 0.41; HKVFISLLCWEKMQKGLTQ: -0.295 ± 0.55. The substance HLCGGHGLVFFWGFVTMKCG returned an amyloid nucleation score of 0.369 ± 0.8.

For HLESAWSRVSTDRCTNTWTV, the amyloid nucleation score was 0.506 ± 0.45. The substance HLFPAGRSKTHAVFWFQGKG gave an amyloid nucleation score of 0.412 ± 0.37. HLFTSCYYYMPLYLLSQRQY yielded an amyloid nucleation score of 6.095 ± 0.044. For the substance HLGRG, the amyloid nucleation score is 0.126 ± 0.45. Next, HLLLEKDPSVWLWPKNRPGS: 3.35 ± 0.088; HLLQRLSRGHMSALKTRLSW: 0.123 ± 1. Regarding HLMRLHY, the amyloid nucleation score was -1.78 ± 1.1. HLNNCALGTDLILNALDVS registered an amyloid nucleation score of -0.426 ± 0.54. On to HLPVSLFYRDS, for which the amyloid nucleation score was determined as 0.165 ± 0.41.

With HLRQWDEYLETGCVN, the amyloid nucleation score was 0.32 ± 0.33. For the substance HLSCKVIENGLWTSFCFKQE, the amyloid nucleation score was -1.04 ± 0.54.

HLSRFKWKHLFLNTVLTFAV: the amyloid nucleation score result is “inactive”. With HLSRPGDAYTVMFT, the amyloid nucleation score stood at 5.845 ± 0.036.
